Results: article PMC9482650, “Quantitative fragmentomics allow affinity mapping of interactomes” (Nature Communications, 2022)

T1: NHERF3_3, Q5T2W1
T1 sequence (Q5T2W1 238-333, limits assumed, looked up): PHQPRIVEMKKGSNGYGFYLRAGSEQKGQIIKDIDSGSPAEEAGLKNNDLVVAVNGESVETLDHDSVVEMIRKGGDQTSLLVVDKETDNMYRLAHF

T2: CARD11, Q9BXL7
T2 sequence (Q9BXL7 662-765, limits assumed, looked up): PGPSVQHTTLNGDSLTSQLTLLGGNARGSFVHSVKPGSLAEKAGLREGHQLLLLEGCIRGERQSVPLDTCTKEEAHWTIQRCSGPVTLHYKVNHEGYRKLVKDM

T3: TJP3_3, O95049
T3 sequence (O95049 375-456, limits assumed, looked up): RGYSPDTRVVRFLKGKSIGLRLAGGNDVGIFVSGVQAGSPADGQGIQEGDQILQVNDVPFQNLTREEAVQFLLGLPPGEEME

T4: NHERF3_4, Q5T2W1
T4 sequence (Q5T2W1 373-468, limits assumed, looked up): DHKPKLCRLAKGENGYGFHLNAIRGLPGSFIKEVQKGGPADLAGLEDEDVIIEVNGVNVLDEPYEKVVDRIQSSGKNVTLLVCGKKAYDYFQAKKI

T5: SIPA1L2, Q9P2F8
T5 sequence (Q9P2F8 945-1036, limits assumed, looked up): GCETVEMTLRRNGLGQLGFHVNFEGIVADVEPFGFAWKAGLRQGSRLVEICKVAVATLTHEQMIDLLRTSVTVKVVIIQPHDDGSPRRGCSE

T6: SNTG1, Q9NSN8
T6 sequence (Q9NSN8 52-150, limits assumed, looked up): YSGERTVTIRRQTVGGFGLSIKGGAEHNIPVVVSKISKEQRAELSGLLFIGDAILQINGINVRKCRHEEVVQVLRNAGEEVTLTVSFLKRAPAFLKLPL

T7: PDZD2_2, O15018
T7 sequence (O15018 329-429, limits assumed, looked up): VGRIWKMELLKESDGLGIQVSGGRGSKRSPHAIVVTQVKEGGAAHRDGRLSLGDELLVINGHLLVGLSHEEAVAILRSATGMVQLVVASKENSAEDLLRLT

T8: HTRA4, P83105
T8 sequence (P83105 378-476, limits assumed, looked up): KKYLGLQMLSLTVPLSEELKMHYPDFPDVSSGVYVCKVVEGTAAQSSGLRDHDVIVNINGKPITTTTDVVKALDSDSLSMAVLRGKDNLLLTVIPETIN

T9: SNTA1, Q13424
T9 sequence (Q13424 82-180, limits assumed, looked up): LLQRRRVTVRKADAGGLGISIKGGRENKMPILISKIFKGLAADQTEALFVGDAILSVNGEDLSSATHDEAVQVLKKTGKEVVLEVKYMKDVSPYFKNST

T10: GRIP1_2, Q9Y3R0
T10 sequence (Q9Y3R0 145-248, limits assumed, looked up): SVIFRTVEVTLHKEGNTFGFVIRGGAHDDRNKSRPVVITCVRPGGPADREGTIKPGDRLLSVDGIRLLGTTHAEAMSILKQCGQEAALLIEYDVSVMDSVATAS


Each binder was assayed against MAGI2_5, Q86UL8 (assay: holdup assay). Settings: plain residues with an end cap or a label only (N-terminal biotin on a linker: ado-ado).
Design: key: below the threshold = too weak to quantify, mostly under pKd 3.1 to 4

Sequence of MAGI2_5, Q86UL8 (Q86UL8 915-1017): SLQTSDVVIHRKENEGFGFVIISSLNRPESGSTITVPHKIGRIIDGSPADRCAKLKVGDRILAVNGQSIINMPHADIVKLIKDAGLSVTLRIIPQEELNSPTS

Binder | pKd
SKQFDKNAYV [CLDN10, P78369] | below the threshold
NTALVESEDL [PALLS, Q8WX93;Q8WX93-1] | below the threshold

What follows are binders tested against SCRIB_2, Q14160 (assay: holdup assay). Settings: plain residues with an end cap or a label only (N-terminal biotin on a linker: ado-ado).
Design: key: below the threshold = too weak to quantify, mostly under pKd 3.1 to 4

Sequence of SCRIB_2, Q14160 (Q14160 857-960): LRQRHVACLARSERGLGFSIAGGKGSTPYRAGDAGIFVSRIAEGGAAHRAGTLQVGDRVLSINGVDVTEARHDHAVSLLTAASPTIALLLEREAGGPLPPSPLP

Binder | pKd
SKQFDKNAYV [CLDN10, P78369] | below the threshold
NTALVESEDL [PALLS, Q8WX93;Q8WX93-1] | below the threshold

These binders were tested against GRIP2_4, Q9C0E4 (assay: holdup assay). Settings: plain residues with an end cap or a label only (N-terminal biotin on a linker: ado-ado).
Design: key: below the threshold = too weak to quantify, mostly under pKd 3.1 to 4

Sequence of GRIP2_4, Q9C0E4 (Q9C0E4 446-548): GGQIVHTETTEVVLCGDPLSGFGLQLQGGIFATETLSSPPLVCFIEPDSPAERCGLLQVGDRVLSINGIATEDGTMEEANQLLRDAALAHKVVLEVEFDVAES

Binder | pKd
SKQFDKNAYV [CLDN10, P78369] | below the threshold
NTALVESEDL [PALLS, Q8WX93;Q8WX93-1] | below the threshold

Each binder was assayed against T1, NHERF3_3, Q5T2W1 (assay: holdup assay). Settings: plain residues with an end cap or a label only (N-terminal biotin on a linker: ado-ado).
Design: key: below the threshold = too weak to quantify, mostly under pKd 3.1 to 4

Binder | pKd
SKQFDKNAYV [CLDN10, P78369] | below the threshold
NTALVESEDL [PALLS, Q8WX93;Q8WX93-1] | below the threshold

What follows are binders tested against T2, CARD11, Q9BXL7 (assay: holdup assay). Settings: plain residues with an end cap or a label only (N-terminal biotin on a linker: ado-ado).
Design: key: below the threshold = too weak to quantify, mostly under pKd 3.1 to 4

Binder | pKd
SKQFDKNAYV [CLDN10, P78369] | below the threshold
NTALVESEDL [PALLS, Q8WX93;Q8WX93-1] | below the threshold

Each binder was assayed against GOPC, Q9HD26 (assay: holdup assay). Settings: plain residues with an end cap or a label only (N-terminal biotin on a linker: ado-ado).
Design: key: below the threshold = too weak to quantify, mostly under pKd 3.1 to 4

Binder | pKd
SKQFDKNAYV [CLDN10, P78369] | below the threshold
NTALVESEDL [PALLS, Q8WX93;Q8WX93-1] | below the threshold

What follows are binders tested against Inadl_5, Q8NI35 (assay: holdup assay). Settings: plain residues with an end cap or a label only (N-terminal biotin on a linker: ado-ado).
Design: key: below the threshold = too weak to quantify, mostly under pKd 3.1 to 4

Sequence of Inadl_5, Q8NI35 (Q8NI35 673-780): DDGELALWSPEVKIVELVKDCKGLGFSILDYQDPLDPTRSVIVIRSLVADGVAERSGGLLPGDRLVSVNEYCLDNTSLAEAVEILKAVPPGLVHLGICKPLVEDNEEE

Binder | pKd
SKQFDKNAYV [CLDN10, P78369] | 3.52
NTALVESEDL [PALLS, Q8WX93;Q8WX93-1] | below the threshold

Each binder was assayed against MAST1, Q9Y2H9 (assay: holdup assay). Settings: plain residues with an end cap or a label only (N-terminal biotin on a linker: ado-ado).
Design: key: below the threshold = too weak to quantify, mostly under pKd 3.1 to 4

Sequence of MAST1, Q9Y2H9 (Q9Y2H9 962-1065): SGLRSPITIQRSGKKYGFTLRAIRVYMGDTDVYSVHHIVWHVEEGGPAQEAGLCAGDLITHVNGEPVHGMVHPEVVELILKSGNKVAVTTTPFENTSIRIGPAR

Binder | pKd
SKQFDKNAYV [CLDN10, P78369] | below the threshold
NTALVESEDL [PALLS, Q8WX93;Q8WX93-1] | 4.56

Each binder was assayed against CASK, O14936 (assay: holdup assay). Settings: plain residues with an end cap or a label only (N-terminal biotin on a linker: ado-ado).
Design: key: below the threshold = too weak to quantify, mostly under pKd 3.1 to 4

Sequence of CASK, O14936 (O14936 487-570): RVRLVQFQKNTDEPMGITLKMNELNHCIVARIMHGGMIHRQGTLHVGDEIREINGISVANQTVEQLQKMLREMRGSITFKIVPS

Binder | pKd
SKQFDKNAYV [CLDN10, P78369] | below the threshold
NTALVESEDL [PALLS, Q8WX93;Q8WX93-1] | below the threshold

What follows are binders tested against FRMPD2_1, Q68DX3 (assay: holdup assay). Settings: plain residues with an end cap or a label only (N-terminal biotin on a linker: ado-ado).
Design: key: below the threshold = too weak to quantify, mostly under pKd 3.1 to 4

Sequence of FRMPD2_1, Q68DX3 (Q68DX3 770-861): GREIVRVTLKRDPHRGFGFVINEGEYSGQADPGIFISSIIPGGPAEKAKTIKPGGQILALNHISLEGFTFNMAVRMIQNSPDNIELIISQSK

Binder | pKd
SKQFDKNAYV [CLDN10, P78369] | below the threshold
NTALVESEDL [PALLS, Q8WX93;Q8WX93-1] | below the threshold

Each binder was assayed against GRIP2_3, Q9C0E4 (assay: holdup assay). Settings: plain residues with an end cap or a label only (N-terminal biotin on a linker: ado-ado).
Design: key: below the threshold = too weak to quantify, mostly under pKd 3.1 to 4

Sequence of GRIP2_3, Q9C0E4 (Q9C0E4 238-339): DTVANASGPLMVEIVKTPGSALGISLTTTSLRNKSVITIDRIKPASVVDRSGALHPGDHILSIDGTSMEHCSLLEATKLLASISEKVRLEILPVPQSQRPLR

Binder | pKd
SKQFDKNAYV [CLDN10, P78369] | below the threshold
NTALVESEDL [PALLS, Q8WX93;Q8WX93-1] | below the threshold

What follows are binders tested against T3, TJP3_3, O95049 (assay: holdup assay). Settings: plain residues with an end cap or a label only (N-terminal biotin on a linker: ado-ado).
Design: key: below the threshold = too weak to quantify, mostly under pKd 3.1 to 4

Binder | pKd
SKQFDKNAYV [CLDN10, P78369] | 3.68
NTALVESEDL [PALLS, Q8WX93;Q8WX93-1] | below the threshold

What follows are binders tested against T4, NHERF3_4, Q5T2W1 (assay: holdup assay). Settings: plain residues with an end cap or a label only (N-terminal biotin on a linker: ado-ado).
Design: key: below the threshold = too weak to quantify, mostly under pKd 3.1 to 4

Binder | pKd
SKQFDKNAYV [CLDN10, P78369] | below the threshold
NTALVESEDL [PALLS, Q8WX93;Q8WX93-1] | below the threshold

What follows are binders tested against LDB3, O75112 (assay: holdup assay). Settings: plain residues with an end cap or a label only (N-terminal biotin on a linker: ado-ado).
Design: key: below the threshold = too weak to quantify, mostly under pKd 3.1 to 4

Sequence of LDB3, O75112 (O75112 1-94): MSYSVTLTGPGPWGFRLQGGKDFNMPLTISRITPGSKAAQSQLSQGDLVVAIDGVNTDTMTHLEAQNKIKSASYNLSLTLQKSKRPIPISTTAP

Binder | pKd
SKQFDKNAYV [CLDN10, P78369] | below the threshold
NTALVESEDL [PALLS, Q8WX93;Q8WX93-1] | 5.16

Each binder was assayed against MAGI2_3, Q86UL8 (assay: holdup assay). Settings: plain residues with an end cap or a label only (N-terminal biotin on a linker: ado-ado).
Design: key: below the threshold = too weak to quantify, mostly under pKd 3.1 to 4

Sequence of MAGI2_3, Q86UL8 (Q86UL8 600-682): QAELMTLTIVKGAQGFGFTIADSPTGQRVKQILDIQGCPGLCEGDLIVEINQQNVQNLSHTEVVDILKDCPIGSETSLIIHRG

Binder | pKd
SKQFDKNAYV [CLDN10, P78369] | below the threshold
NTALVESEDL [PALLS, Q8WX93;Q8WX93-1] | below the threshold

The binders below were run against T5, SIPA1L2, Q9P2F8 (assay: holdup assay). Settings: plain residues with an end cap or a label only (N-terminal biotin on a linker: ado-ado).
Design: key: below the threshold = too weak to quantify, mostly under pKd 3.1 to 4

Binder | pKd
SKQFDKNAYV [CLDN10, P78369] | below the threshold
NTALVESEDL [PALLS, Q8WX93;Q8WX93-1] | below the threshold

These binders were tested against MAGI2_4, Q86UL8 (assay: holdup assay). Settings: plain residues with an end cap or a label only (N-terminal biotin on a linker: ado-ado).
Design: key: below the threshold = too weak to quantify, mostly under pKd 3.1 to 4

Sequence of MAGI2_4, Q86UL8 (Q86UL8 772-865): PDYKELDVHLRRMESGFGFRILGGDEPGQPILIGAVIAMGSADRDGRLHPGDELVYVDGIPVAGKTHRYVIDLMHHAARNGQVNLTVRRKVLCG

Binder | pKd
SKQFDKNAYV [CLDN10, P78369] | below the threshold

Each binder was assayed against DLG2_2, Q15700 (assay: holdup assay). Settings: plain residues with an end cap or a label only (N-terminal biotin on a linker: ado-ado).
Design: key: below the threshold = too weak to quantify, mostly under pKd 3.1 to 4

Sequence of DLG2_2, Q15700 (Q15700 189-283): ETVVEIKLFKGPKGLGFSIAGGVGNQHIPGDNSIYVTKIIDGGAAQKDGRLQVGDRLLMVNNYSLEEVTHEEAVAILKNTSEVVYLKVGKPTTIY

Binder | pKd
SKQFDKNAYV [CLDN10, P78369] | below the threshold
NTALVESEDL [PALLS, Q8WX93;Q8WX93-1] | below the threshold

What follows are binders tested against T6, SNTG1, Q9NSN8 (assay: holdup assay). Settings: plain residues with an end cap or a label only (N-terminal biotin on a linker: ado-ado).
Design: key: below the threshold = too weak to quantify, mostly under pKd 3.1 to 4

Binder | pKd
SKQFDKNAYV [CLDN10, P78369] | below the threshold
NTALVESEDL [PALLS, Q8WX93;Q8WX93-1] | below the threshold

What follows are binders tested against PICK1, Q9NRD5 (assay: holdup assay). Settings: plain residues with an end cap or a label only (N-terminal biotin on a linker: ado-ado).
Design: key: below the threshold = too weak to quantify, mostly under pKd 3.1 to 4

Sequence of PICK1, Q9NRD5 (Q9NRD5 17-115): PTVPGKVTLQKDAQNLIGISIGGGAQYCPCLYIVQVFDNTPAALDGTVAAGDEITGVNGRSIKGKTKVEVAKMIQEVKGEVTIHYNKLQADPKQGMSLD

Binder | pKd
SKQFDKNAYV [CLDN10, P78369] | below the threshold
NTALVESEDL [PALLS, Q8WX93;Q8WX93-1] | below the threshold

Each binder was assayed against T7, PDZD2_2, O15018 (assay: holdup assay). Settings: plain residues with an end cap or a label only (N-terminal biotin on a linker: ado-ado).
Design: key: below the threshold = too weak to quantify, mostly under pKd 3.1 to 4

Binder | pKd
SKQFDKNAYV [CLDN10, P78369] | 5.11
NTALVESEDL [PALLS, Q8WX93;Q8WX93-1] | below the threshold

The binders below were run against T8, HTRA4, P83105 (assay: holdup assay). Settings: plain residues with an end cap or a label only (N-terminal biotin on a linker: ado-ado).
Design: key: below the threshold = too weak to quantify, mostly under pKd 3.1 to 4

Binder | pKd
SKQFDKNAYV [CLDN10, P78369] | below the threshold
NTALVESEDL [PALLS, Q8WX93;Q8WX93-1] | below the threshold

Each binder was assayed against PTPN3, P26045 (assay: holdup assay). Settings: plain residues with an end cap or a label only (N-terminal biotin on a linker: ado-ado).
Design: key: below the threshold = too weak to quantify, mostly under pKd 3.1 to 4

Sequence of PTPN3, P26045 (P26045 505-587): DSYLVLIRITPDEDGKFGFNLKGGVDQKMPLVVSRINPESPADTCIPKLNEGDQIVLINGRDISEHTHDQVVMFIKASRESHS

Binder | pKd
SKQFDKNAYV [CLDN10, P78369] | below the threshold
NTALVESEDL [PALLS, Q8WX93;Q8WX93-1] | 4.33

The binders below were run against LNX1_3, Q8TBB1 (assay: holdup assay). Settings: plain residues with an end cap or a label only (N-terminal biotin on a linker: ado-ado).
Design: key: below the threshold = too weak to quantify, mostly under pKd 3.1 to 4

Sequence of LNX1_3, Q8TBB1 (Q8TBB1 500-596): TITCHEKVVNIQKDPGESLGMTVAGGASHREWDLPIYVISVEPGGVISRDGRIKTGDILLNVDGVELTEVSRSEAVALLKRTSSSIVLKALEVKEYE

Binder | pKd
SKQFDKNAYV [CLDN10, P78369] | below the threshold
NTALVESEDL [PALLS, Q8WX93;Q8WX93-1] | below the threshold

Each binder was assayed against Inadl_6, Q8NI35 (assay: holdup assay). Settings: plain residues with an end cap or a label only (N-terminal biotin on a linker: ado-ado).
Design: key: below the threshold = too weak to quantify, mostly under pKd 3.1 to 4

Sequence of Inadl_6, Q8NI35 (Q8NI35 1058-1167): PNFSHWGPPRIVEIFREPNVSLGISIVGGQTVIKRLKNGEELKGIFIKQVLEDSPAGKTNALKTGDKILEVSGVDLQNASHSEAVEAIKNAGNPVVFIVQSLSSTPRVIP

Binder | pKd
SKQFDKNAYV [CLDN10, P78369] | below the threshold
NTALVESEDL [PALLS, Q8WX93;Q8WX93-1] | below the threshold

Each binder was assayed against T9, SNTA1, Q13424 (assay: holdup assay). Settings: plain residues with an end cap or a label only (N-terminal biotin on a linker: ado-ado).
Design: key: below the threshold = too weak to quantify, mostly under pKd 3.1 to 4

Binder | pKd
SKQFDKNAYV [CLDN10, P78369] | 3.55
NTALVESEDL [PALLS, Q8WX93;Q8WX93-1] | below the threshold

Each binder was assayed against NHERF4_2, Q86UT5 (assay: holdup assay). Settings: plain residues with an end cap or a label only (N-terminal biotin on a linker: ado-ado).
Design: key: below the threshold = too weak to quantify, mostly under pKd 3.1 to 4

Sequence of NHERF4_2, Q86UT5 (Q86UT5 220-308): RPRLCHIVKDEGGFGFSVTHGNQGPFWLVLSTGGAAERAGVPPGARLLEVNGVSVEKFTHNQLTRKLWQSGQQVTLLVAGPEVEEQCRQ

Binder | pKd
SKQFDKNAYV [CLDN10, P78369] | below the threshold

Each binder was assayed against T10, GRIP1_2, Q9Y3R0 (assay: holdup assay). Settings: plain residues with an end cap or a label only (N-terminal biotin on a linker: ado-ado).
Design: key: below the threshold = too weak to quantify, mostly under pKd 3.1 to 4

Binder | pKd
SKQFDKNAYV [CLDN10, P78369] | below the threshold
NTALVESEDL [PALLS, Q8WX93;Q8WX93-1] | below the threshold

The binders below were run against HTRA1, Q92743 (assay: holdup assay). Settings: plain residues with an end cap or a label only (N-terminal biotin on a linker: ado-ado).
Design: key: below the threshold = too weak to quantify, mostly under pKd 3.1 to 4

Sequence of HTRA1, Q92743 (Q92743 360-477): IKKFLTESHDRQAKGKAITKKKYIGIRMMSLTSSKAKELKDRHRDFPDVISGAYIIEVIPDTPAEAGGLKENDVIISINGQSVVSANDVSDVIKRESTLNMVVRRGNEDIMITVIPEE

Binder | pKd
SKQFDKNAYV [CLDN10, P78369] | 3.97
NTALVESEDL [PALLS, Q8WX93;Q8WX93-1] | below the threshold
